Data as given in publication PMC8062489, “Tgf-β1 transcriptionally promotes 90K expression: possible implications for cancer progression”.

B1: Oligo I (dsDNA)
DNA 1: GCAGCCTCCGTCATGTGTTTTCTGGA
DNA 2: TCCAGAAAACACATGACGGAGGCTGC
B2: EWT (E, consensus E-box) (dsDNA)
DNA 1: GGAAGCAGACCACGTGGTCTGCTT
DNA 2: AAGCAGACCACGTGGTCTGCTTCC

Molecular target: rUSF1 (recombinant His-USF1) (UniProt P22415 1-310)
Assay: EMSA; 20 mM HEPES (pH not stated), 0.1% NP40, 5 mM MgCl2, 50 mM KCl, 2% glycerol, 2 mM DTT, 50 ng/ml poly(dI-dC), room temperature, 20 ul, 5 ug nuclear extract; 5% native PAGE in 1x TBE
Settings: protein: recombinant; tags: N-terminal His-tag; chain copies: 2; label: 5'-32P as probe; blunt

rUSF1 (recombinant His-USF1), sequence (P22415 whole entry): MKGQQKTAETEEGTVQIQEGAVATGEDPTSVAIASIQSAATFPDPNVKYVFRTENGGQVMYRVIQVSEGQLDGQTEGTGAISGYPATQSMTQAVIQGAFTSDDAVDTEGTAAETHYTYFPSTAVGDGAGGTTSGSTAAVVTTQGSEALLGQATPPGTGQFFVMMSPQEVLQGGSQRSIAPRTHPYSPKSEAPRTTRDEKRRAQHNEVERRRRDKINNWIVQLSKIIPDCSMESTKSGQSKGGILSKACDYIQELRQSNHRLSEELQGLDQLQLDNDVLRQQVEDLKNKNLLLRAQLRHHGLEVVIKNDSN

| Binder | binding result |
| --- | --- |
| B1 | binds |
| B2 | binds |
